Patent US20150252427A1 (UNIVERSITY OF CONNECTICUT, published 2015)

B1: Ssx2ip WT peptide (peptide)
peptide: CYAKLKEQL
notes: WT of CYAK(v/L)KEQL
B2: Ssx2ip Mut peptide (peptide)
peptide: CYAKVKEQL
notes: Mut of CYAK(v/L)KEQL; CMS5
B3: Ccdc85c Mut peptide (peptide)
peptide: TYIRPFETKV
notes: Mut of TYIRP(f/L)ETKV; Meth A
B4: Alms1.2 WT peptide (peptide)
peptide: YYVPLLKRVPS
B5: Alms1.2 Mut peptide (peptide)
peptide: YYVPLLKRVPL
notes: Meth A
B6: Apc WT peptide (peptide)
peptide: AYCETCWEW
B7: Apc Mut peptide (peptide)
peptide: AYCETCWEL
notes: Meth A
B8: Serinc1 WT peptide (peptide)
peptide: NYLLSLVAVVL
B9: Serinc1 Mut peptide (peptide)
peptide: NYLLSLVAVML
notes: CMS5
B10: Ufsp2 WT peptide (peptide)
peptide: HYINMSLPI
notes: WT of HYINM(i/S)LPI
B11: Ufsp2 Mut peptide (peptide)
peptide: HYINMILPI
notes: Mut of HYINM(i/S)LPI; Meth A
B12: Pacs2 WT peptide (peptide)
peptide: HYLSAILRL
notes: WT of HYLS(s/A)ILRL
B13: Pacs2 Mut peptide (peptide)
peptide: HYLSSILRL
notes: Mut of HYLS(s/A)ILRL; Meth A
B14: Dhx8.3 WT peptide (peptide)
peptide: PDLTQYAII
notes: WT of P(y/D)LTQYAII
B15: Dhx8.3 Mut peptide (peptide)
peptide: PYLTQYAII
notes: Mut of P(y/D)LTQYAII; CMS5
B16: Tnpo3 Mut peptide (peptide)
peptide: SYMLQALCI
notes: Mut of (sy/LD)MLQALCI; Meth A; also called mutant Tnpo3 peptide; sy-MLQALCI
B17: Ube4a.2 Mut peptide (peptide)
peptide: AYAKQFAA
notes: Mut of A(y/D)AKQFAA; Meth A
B18: Dhx8.1 WT peptide (peptide)
peptide: PDLTQYAIIML
B19: Dhx8.1 Mut peptide (peptide)
peptide: PYLTQYAIIML
notes: CMS5
B20: Fiz1 Mut peptide (peptide)
peptide: HYLQGSNA
notes: Mut of H(y/D)LQGSNA; Meth A
B21: Ube4a.1 Mut peptide (peptide)
peptide: AYAKQFAAI
notes: Mut of A(y/D)AKQFAAI; Meth A
B22: Cpsf2 Mut peptide (peptide)
peptide: LYDVDAAF
notes: Mut of L(y/D)DVDAAF; Meth A
B23: Galnt1 Mut peptide (peptide)
peptide: LYVSKLNGP
notes: Mut of L(y/D)VSKLNGP; Meth A
B24: Alkbh6.4 Mut peptide (peptide)
peptide: DYVPMEQPRPP
notes: CMS5
B25: Trim26.2 Mut peptide (peptide)
peptide: AYILAALTKLQ
notes: Meth A
B26: Gapdh Mut peptide (peptide)
peptide: VYLTCRLEKPA
notes: Meth A
B27: Mast2 WT peptide (peptide)
peptide: KLQRQYRSPRR
B28: Mast2 Mut peptide (peptide)
peptide: KLQRQYRSPRL
notes: CMS5
B29: Prrc2a WT peptide (peptide)
peptide: PDKRLKAEPA
B30: Prrc2a Mut peptide (peptide)
peptide: PYKRLKAEPA
notes: Meth A
B31: Dhx8.4 WT peptide (peptide)
peptide: PDLTQYAIIM
B32: Dhx8.4 Mut peptide (peptide)
peptide: PYLTQYAIIM
notes: CMS5
B33: M112 WT peptide (peptide)
peptide: SDRLPSSRKK
B34: Tnpo3 WT peptide (peptide)
peptide: LDMLQALCI
notes: WT of (sy/LD)MLQALCI
B35: Slit3 Mut peptide (peptide)
peptide: GFHGCIHEVL
notes: CMS5
B36: Zfp236.1 Mut peptide (peptide)
peptide: EYLDLQTQ
notes: Mut of E(y/D)LDLQTQ; Meth A
B37: Nfkb1 WT peptide (peptide)
peptide: GDSVLHLAI
notes: WT of G(y/D)SVLHLAI
B38: Nfkb1 Mut peptide (peptide)
peptide: GYSVLHLAI
notes: Mut of G(y/D)SVLHLAI; Meth A
B39: Rangap1 WT peptide (peptide)
peptide: SEDKIKAIP
B40: Ccdc136 WT peptide (peptide)
peptide: ELQGLLEDER
B41: Dis312.1 Mut peptide (peptide)
peptide: IYGVVARNRAL
notes: Mut of I(y/D)GVVARNRAL; Meth A
B42: Trim26.1 WT peptide (peptide)
peptide: ADILAALTKL
B43: Trim26.1 Mut peptide (peptide)
peptide: AYILAALTKL
notes: Meth A
B44: Ugdh WT peptide (peptide)
peptide: LDYERIHKKML
B45: Ugdh Mut peptide (peptide)
peptide: LYYERIHKKML
notes: Meth A
B46: Ckap5 Mut peptide (Table 5, 9-mer) (peptide)
peptide: KYMSMLEER
notes: Mut of K(y/D)MSMLEER; Meth A
B47: Alkbh6.1 Mut peptide (peptide)
peptide: DYVPMEQP
notes: Mut of D(y/D)VPMEQP; CMS5
B48: Atxn10.1 WT peptide (peptide)
peptide: QVFPGLMER
B49: Stau1.3 Mut peptide (peptide)
peptide: PALKSEEKTL
notes: CMS5
B50: Kdm4b Mut peptide (peptide)
peptide: LYHTRPTAL
notes: Mut of L(y/D)HTRPTAL; Meth A

Molecular target: T1, H-2 K^d molecules purified by affinity chromatography (human, UniProt P61769 21-119; P01902 22-305)
T1 construct: MHC class I molecule, 1-10 nM in the assay, with added human beta-2 microglobulin; also called purified MHC molecules
Test: radiolabeled peptide inhibition assay, purified H-2 K^d
Description: (§1) Binding assays. […] Under the conditions utilized, where [label]<[MHC] and IC₅₀≧[MHC], the measured IC50 values are reasonable approximations of the KD values.

Going from B1 to B2, the IC50 rises from 0.0032 µM to 0.026 µM (8.1-fold). The first is the more potent here.

Going from B3 to B4, the IC50 falls from 6.16 µM to 1.49 µM (4.1-fold). The second is the more potent here.

Compared with B5, B6 is 7-fold lower in IC50: 0.421 µM for the first, 0.06 µM for the second.

Compared with B7, B8 is 910-fold higher in IC50: 0.023 µM for the first, 20.9 µM for the second. The first is the more potent here.

Going from B9 to B10, the IC50 falls from 2.68 µM to < 0.0001 µM.

Going from B11 to B12, the IC50 rises from 0.00023 µM to 1.27 µM (5500-fold).

In the case of B13, the IC50 is reported as 0.041 µM.

Molecular target: T1, H-2 K^d molecules purified by affinity …
Test: as above
Remark: another data set of the same source
Description: as §1

Compared with B14, B15 is 5.8-fold lower in IC50: 1.42 µM for the first, 0.244 µM for the second.

Going from B16 to B17, the IC50 rises from 0.082 µM to 28.6 µM (350-fold).

B18 and B19 are within 1.5-fold of each other in IC50: 1.65 µM for the first, 2.19 µM for the second.

Going from B20 to B21, the IC50 falls from 2.47 µM to 0.012 µM (210-fold). The second is the more potent here.

Going from B22 to B23, the IC50 rises from 1.41 µM to 27.1 µM (19-fold).

First: B24
Second: B25
The IC50 of the first is 2.7-fold higher: 47.1 µM for the first, 17.6 µM for the second. The second is the more potent here.

First: B26
Second: B27
The IC50 of the first is 7.4-fold lower: 1.15 µM for the first, 8.51 µM for the second. The first is the more potent here.

First: B28
Second: B29
The IC50 of the first is 39-fold higher: 10.1 µM for the first, 0.261 µM for the second.

Going from B30 to B31, the IC50 rises from 1.45 µM to 6.26 µM (4.3-fold). The first is the more potent here.

First: B32
Second: B33
The IC50 of the first is 390-fold higher: 6.57 µM for the first, 0.017 µM for the second. The second is the more potent here.

Compared with B34, B35 is 350-fold higher in IC50: 0.146 µM for the first, 51.6 µM for the second.

B36 and B37 are within 1.5-fold of each other in IC50: 1.64 µM for the first, 1.61 µM for the second.

First: B38
Second: B39
The IC50 of the first is 20000-fold lower: 0.00026 µM for the first, 5.11 µM for the second. The first is the more potent here.

Compared with B40, B41 is 32-fold lower in IC50: 4.54 µM for the first, 0.143 µM for the second. The second is the more potent here.

Going from B42 to B43, the IC50 rises from 0.0011 µM to 0.622 µM (570-fold).

Compared with B44, B45 is 50-fold higher in IC50: 0.012 µM for the first, 0.6 µM for the second.

Compared with B46, B47 is 1000-fold higher in IC50: 0.058 µM for the first, 60.9 µM for the second.

Compared with B48, B49 is 9.9-fold higher in IC50: 7.05 µM for the first, 69.5 µM for the second.

In the case of B50, the IC50 is reported as 0.264 µM.
